Where a chain is given by its changes, count along the chain named. Ends that are not written are not given here. * marks the point of attachment. Biotin = O=C1N[C@H]2[C@H](CS[C@H]2CCCCC(=O)*)N1; Ttds = NCCCOCCOCCOCCCNC(=O)CCC(=O)*
T1: biotinylated synthetic peptide containing the PDZ-binding motif of cadherin-related 23 …
T1 peptide: {Biotin-Ttds}-VIMESPLEITEL

B1: wild-type PDZ2 domain of harmonin (domain or fragment)
chain: GGLGSPGNRTTKEKKVFISLVGSRGLGCSISSGPIQKPGIFVSHVKPGSLSAEVGLETGDQIVEVNGIDFTNLDHKEAVNVLKSSRSLTISIVAGAGRE
B2: variant PDZ2 domain of harmonin carrying p.Gly223Cys (domain or fragment)
chain: B1 chain with G27C

Target: T1, biotinylated synthetic peptide …
Experiment: BLI

Binder | Kd [µM]
B1 | 37.6 ± 4.1
B2 | 621 ± 88
